Legend:
[1] = target: T1, AFP158/HLA-A*02:01 complex (human); assay: SPR; vs AS170036 VL1VH1;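 note: crude scFv captured on sensor chip, peptide–HLA complex flowed over at several concentrations, KD estimated from association and dissociation kinetic rates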
T1 construct: biotinylated on the BSP by BirA for ELISA and panning; also called biotinylated AFP158/HLA-A*02:01 complex; Bio-AFP158
Protocol: (§1) The experiment was carried out as follows. The crude scFv protein were captured onto the sensorchip. Different concentrations (320, 160, 40 nM) of AFP158/HLA-A*02:01 complex flowed over the sensorchip surface, and were allowed to bind the antibody fragment for 100 s followed by injection of the running buffer to allow dissociation of the complex. On-rate (kd) and off-rate (kd) were calculated based on association and dissociation curve, and were used to estimate the equilibrium dissociation constant (KD).

[2] = target: T1, AFP158/HLA-A*02:01 complex; assay: SPR, crude scFv captured;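 note: Peptide–MHC complex flowed at several concentrations over sensorchip-captured scFv, Kd derived from on- and off-rates obtained from the association and dissociation curves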
Protocol: as §1

B1: AS170036 VL1VH1 HP58Y (scFv)
scFv: QSALTQPRSVSGSPGQSVTISCAGTSSDVGSENYVSWYQQHPGKAPKLMIYQVNKRASGVPDRFSGSKSGNTASLTISGLQAEDEADYYCASYRSSDHNIVFGGGTKLTVLGGGGSGGGGSGGGGSEVQLVESGGGLVQPGGSLRLSCAASGFTFSSYAMSWVRQAPGKGLEWVSTINSGTGSYYYADSVKGRFTISRDNSKNTLYLQMNSLRAEDTAVYYCAKNFFDGSWFLGPPAMDYWGQGTLVTVSSHHHHHH
Affinity increase [1]: 0.1 fold | Kd [2]: 3500 nM

B2: AS170036 VL1VH1 HP110N (scFv)
scFv: QSALTQPRSVSGSPGQSVTISCAGTSSDVGSENYVSWYQQHPGKAPKLMIYQVNKRASGVPDRFSGSKSGNTASLTISGLQAEDEADYYCASYRSSDHNIVFGGGTKLTVLGGGGSGGGGSGGGGSEVQLVESGGGLVQPGGSLRLSCAASGFTFSSYAMSWVRQAPGKGLEWVSTINSGTGSPYYADSVKGRFTISRDNSKNTLYLQMNSLRAEDTAVYYCAKNFFDGSWFLGPNAMDYWGQGTLVTVSSHHHHHH
Affinity increase [1]: 0.2 fold | Kd [2]: 1200 nM

B3: AS170036 VL1VH1 HP110D (scFv)
scFv: QSALTQPRSVSGSPGQSVTISCAGTSSDVGSENYVSWYQQHPGKAPKLMIYQVNKRASGVPDRFSGSKSGNTASLTISGLQAEDEADYYCASYRSSDHNIVFGGGTKLTVLGGGGSGGGGSGGGGSEVQLVESGGGLVQPGGSLRLSCAASGFTFSSYAMSWVRQAPGKGLEWVSTINSGTGSPYYADSVKGRFTISRDNSKNTLYLQMNSLRAEDTAVYYCAKNFFDGSWFLGPDAMDYWGQGTLVTVSSHHHHHH
Affinity increase [1]: 0.5 fold | Kd [2]: 540 nM

B4: AS170036 VL1VH1 HP110G (scFv)
scFv: QSALTQPRSVSGSPGQSVTISCAGTSSDVGSENYVSWYQQHPGKAPKLMIYQVNKRASGVPDRFSGSKSGNTASLTISGLQAEDEADYYCASYRSSDHNIVFGGGTKLTVLGGGGSGGGGSGGGGSEVQLVESGGGLVQPGGSLRLSCAASGFTFSSYAMSWVRQAPGKGLEWVSTINSGTGSPYYADSVKGRFTISRDNSKNTLYLQMNSLRAEDTAVYYCAKNFFDGSWFLGPGAMDYWGQGTLVTVSSHHHHHH
Affinity increase [1]: 1 fold | Kd [2]: 260 nM

B5: AS170036 VL1VH1 HS53T (scFv)
scFv: QSALTQPRSVSGSPGQSVTISCAGTSSDVGSENYVSWYQQHPGKAPKLMIYQVNKRASGVPDRFSGSKSGNTASLTISGLQAEDEADYYCASYRSSDHNIVFGGGTKLTVLGGGGSGGGGSGGGGSEVQLVESGGGLVQPGGSLRLSCAASGFTFSSYAMSWVRQAPGKGLEWVSTINTGTGSPYYADSVKGRFTISRDNSKNTLYLQMNSLRAEDTAVYYCAKNFFDGSWFLGPPAMDYWGQGTLVTVSSHHHHHH
Affinity increase [1]: 0.4 fold | Kd [2]: 650 nM

B6: AS170036 VL1VH1 HS53A (scFv)
scFv: QSALTQPRSVSGSPGQSVTISCAGTSSDVGSENYVSWYQQHPGKAPKLMIYQVNKRASGVPDRFSGSKSGNTASLTISGLQAEDEADYYCASYRSSDHNIVFGGGTKLTVLGGGGSGGGGSGGGGSEVQLVESGGGLVQPGGSLRLSCAASGFTFSSYAMSWVRQAPGKGLEWVSTINAGTGSPYYADSVKGRFTISRDNSKNTLYLQMNSLRAEDTAVYYCAKNFFDGSWFLGPPAMDYWGQGTLVTVSSHHHHHH
Affinity increase [1]: 0.2 fold | Kd [2]: 1200 nM

B7: AS170036 VL1VH1 HS57D (scFv)
scFv: QSALTQPRSVSGSPGQSVTISCAGTSSDVGSENYVSWYQQHPGKAPKLMIYQVNKRASGVPDRFSGSKSGNTASLTISGLQAEDEADYYCASYRSSDHNIVFGGGTKLTVLGGGGSGGGGSGGGGSEVQLVESGGGLVQPGGSLRLSCAASGFTFSSYAMSWVRQAPGKGLEWVSTINSGTGDPYYADSVKGRFTISRDNSKNTLYLQMNSLRAEDTAVYYCAKNFFDGSWFLGPPAMDYWGQGTLVTVSSHHHHHH
Affinity increase [1]: 1.2 fold | Kd [2]: 200 nM

B8: AS170036 VL1VH1 HP109N (scFv)
scFv: QSALTQPRSVSGSPGQSVTISCAGTSSDVGSENYVSWYQQHPGKAPKLMIYQVNKRASGVPDRFSGSKSGNTASLTISGLQAEDEADYYCASYRSSDHNIVFGGGTKLTVLGGGGSGGGGSGGGGSEVQLVESGGGLVQPGGSLRLSCAASGFTFSSYAMSWVRQAPGKGLEWVSTINSGTGSPYYADSVKGRFTISRDNSKNTLYLQMNSLRAEDTAVYYCAKNFFDGSWFLGNPAMDYWGQGTLVTVSSHHHHHH
Affinity increase [1]: 0.1 fold | Kd [2]: 4500 nM

B9: AS170036 VL1VH1 HP109T (scFv)
scFv: QSALTQPRSVSGSPGQSVTISCAGTSSDVGSENYVSWYQQHPGKAPKLMIYQVNKRASGVPDRFSGSKSGNTASLTISGLQAEDEADYYCASYRSSDHNIVFGGGTKLTVLGGGGSGGGGSGGGGSEVQLVESGGGLVQPGGSLRLSCAASGFTFSSYAMSWVRQAPGKGLEWVSTINSGTGSPYYADSVKGRFTISRDNSKNTLYLQMNSLRAEDTAVYYCAKNFFDGSWFLGTPAMDYWGQGTLVTVSSHHHHHH
Affinity increase [1]: 0.1 fold | Kd [2]: 5400 nM

B10: AS170036 VL1VH1 HP110Q (scFv)
scFv: QSALTQPRSVSGSPGQSVTISCAGTSSDVGSENYVSWYQQHPGKAPKLMIYQVNKRASGVPDRFSGSKSGNTASLTISGLQAEDEADYYCASYRSSDHNIVFGGGTKLTVLGGGGSGGGGSGGGGSEVQLVESGGGLVQPGGSLRLSCAASGFTFSSYAMSWVRQAPGKGLEWVSTINSGTGSPYYADSVKGRFTISRDNSKNTLYLQMNSLRAEDTAVYYCAKNFFDGSWFLGPQAMDYWGQGTLVTVSSHHHHHH
Affinity increase [1]: 0.9 fold | Kd [2]: 300 nM

B11: AS170036 VL1VH1 HP110S (scFv)
scFv: QSALTQPRSVSGSPGQSVTISCAGTSSDVGSENYVSWYQQHPGKAPKLMIYQVNKRASGVPDRFSGSKSGNTASLTISGLQAEDEADYYCASYRSSDHNIVFGGGTKLTVLGGGGSGGGGSGGGGSEVQLVESGGGLVQPGGSLRLSCAASGFTFSSYAMSWVRQAPGKGLEWVSTINSGTGSPYYADSVKGRFTISRDNSKNTLYLQMNSLRAEDTAVYYCAKNFFDGSWFLGPSAMDYWGQGTLVTVSSHHHHHH
Affinity increase [1]: 0.8 fold | Kd [2]: 300 nM

B12: AS170036 VL1VH1 HP109A (scFv)
scFv: QSALTQPRSVSGSPGQSVTISCAGTSSDVGSENYVSWYQQHPGKAPKLMIYQVNKRASGVPDRFSGSKSGNTASLTISGLQAEDEADYYCASYRSSDHNIVFGGGTKLTVLGGGGSGGGGSGGGGSEVQLVESGGGLVQPGGSLRLSCAASGFTFSSYAMSWVRQAPGKGLEWVSTINSGTGSPYYADSVKGRFTISRDNSKNTLYLQMNSLRAEDTAVYYCAKNFFDGSWFLGAPAMDYWGQGTLVTVSSHHHHHH
Affinity increase [1]: 0.1 fold | Kd [2]: 2700 nM

B13: AS170036 VL1VH1 HS57A (scFv)
scFv: QSALTQPRSVSGSPGQSVTISCAGTSSDVGSENYVSWYQQHPGKAPKLMIYQVNKRASGVPDRFSGSKSGNTASLTISGLQAEDEADYYCASYRSSDHNIVFGGGTKLTVLGGGGSGGGGSGGGGSEVQLVESGGGLVQPGGSLRLSCAASGFTFSSYAMSWVRQAPGKGLEWVSTINSGTGAPYYADSVKGRFTISRDNSKNTLYLQMNSLRAEDTAVYYCAKNFFDGSWFLGPPAMDYWGQGTLVTVSSHHHHHH
Affinity increase [1]: 1.2 fold | Kd [2]: 210 nM

B14: AS170036 VL1VH1 HP110V (scFv)
scFv: QSALTQPRSVSGSPGQSVTISCAGTSSDVGSENYVSWYQQHPGKAPKLMIYQVNKRASGVPDRFSGSKSGNTASLTISGLQAEDEADYYCASYRSSDHNIVFGGGTKLTVLGGGGSGGGGSGGGGSEVQLVESGGGLVQPGGSLRLSCAASGFTFSSYAMSWVRQAPGKGLEWVSTINSGTGSPYYADSVKGRFTISRDNSKNTLYLQMNSLRAEDTAVYYCAKNFFDGSWFLGPVAMDYWGQGTLVTVSSHHHHHH
Affinity increase [1]: 0.6 fold | Kd [2]: 400 nM

B15: AS170036 VL1VH1 HP110L (scFv)
scFv: QSALTQPRSVSGSPGQSVTISCAGTSSDVGSENYVSWYQQHPGKAPKLMIYQVNKRASGVPDRFSGSKSGNTASLTISGLQAEDEADYYCASYRSSDHNIVFGGGTKLTVLGGGGSGGGGSGGGGSEVQLVESGGGLVQPGGSLRLSCAASGFTFSSYAMSWVRQAPGKGLEWVSTINSGTGSPYYADSVKGRFTISRDNSKNTLYLQMNSLRAEDTAVYYCAKNFFDGSWFLGPLAMDYWGQGTLVTVSSHHHHHH
Affinity increase [1]: 0.2 fold | Kd [2]: 1500 nM

B16: AS170036 VL1VH1 HP110T (scFv)
scFv: QSALTQPRSVSGSPGQSVTISCAGTSSDVGSENYVSWYQQHPGKAPKLMIYQVNKRASGVPDRFSGSKSGNTASLTISGLQAEDEADYYCASYRSSDHNIVFGGGTKLTVLGGGGSGGGGSGGGGSEVQLVESGGGLVQPGGSLRLSCAASGFTFSSYAMSWVRQAPGKGLEWVSTINSGTGSPYYADSVKGRFTISRDNSKNTLYLQMNSLRAEDTAVYYCAKNFFDGSWFLGPTAMDYWGQGTLVTVSSHHHHHH
Affinity increase [1]: 1.3 fold | Kd [2]: 180 nM

B17: AS170036 VL1VH1 HP110E (scFv)
scFv: QSALTQPRSVSGSPGQSVTISCAGTSSDVGSENYVSWYQQHPGKAPKLMIYQVNKRASGVPDRFSGSKSGNTASLTISGLQAEDEADYYCASYRSSDHNIVFGGGTKLTVLGGGGSGGGGSGGGGSEVQLVESGGGLVQPGGSLRLSCAASGFTFSSYAMSWVRQAPGKGLEWVSTINSGTGSPYYADSVKGRFTISRDNSKNTLYLQMNSLRAEDTAVYYCAKNFFDGSWFLGPEAMDYWGQGTLVTVSSHHHHHH
Affinity increase [1]: 1.8 fold | Kd [2]: 150 nM

B18: AS170036 VL1VH1 HP110A (scFv)
scFv: QSALTQPRSVSGSPGQSVTISCAGTSSDVGSENYVSWYQQHPGKAPKLMIYQVNKRASGVPDRFSGSKSGNTASLTISGLQAEDEADYYCASYRSSDHNIVFGGGTKLTVLGGGGSGGGGSGGGGSEVQLVESGGGLVQPGGSLRLSCAASGFTFSSYAMSWVRQAPGKGLEWVSTINSGTGSPYYADSVKGRFTISRDNSKNTLYLQMNSLRAEDTAVYYCAKNFFDGSWFLGPAAMDYWGQGTLVTVSSHHHHHH
Affinity increase [1]: 1.3 fold | Kd [2]: 210 nM

B19: AS170036 VL1VH1 HP110I (scFv)
scFv: QSALTQPRSVSGSPGQSVTISCAGTSSDVGSENYVSWYQQHPGKAPKLMIYQVNKRASGVPDRFSGSKSGNTASLTISGLQAEDEADYYCASYRSSDHNIVFGGGTKLTVLGGGGSGGGGSGGGGSEVQLVESGGGLVQPGGSLRLSCAASGFTFSSYAMSWVRQAPGKGLEWVSTINSGTGSPYYADSVKGRFTISRDNSKNTLYLQMNSLRAEDTAVYYCAKNFFDGSWFLGPIAMDYWGQGTLVTVSSHHHHHH
Affinity increase [1]: 0.2 fold | Kd [2]: 1500 nM

From patent publication US20240279318A1 (NANJING LEGEND BIOTECH, published 2024)
